Source: patent US20260070976A1
Substitutions are numbered along the chain they refer to.

B1: X20 (antibody, human IgG4, V domains shown)
VH: QVQLVQSGAEVKKPGSSVKVSCKASGYNFLHYDVNWVRQAPGQGLEWMGGIIPIFGTANYAQKFQGRVTITADESTSTAYMELSSLRSEDTAVYYCATAVGAGWFDPWGQGTLVTVSS
VL: DIVMTQSPDSLAVSLGERATINCKSSQSVYFSENNKNYLAWYQQKPGQPPKLLIYWASTRESGVPDRFSGSGSGTDFTLTISSLQAEDVAVYYCQQYYEEPYTFGQGTRLEIK
B2: X4 (antibody, human IgG4, V domains shown)
VH: B1 VH with H31N, A99G
VL: B1 VL with E33P, Y98F
B3: X7 (antibody, human IgG4, V domains shown)
VH: B1 VH with H31N, A99G
VL: B1 VL with Y30F, S32D, Y98F
B4: X11 (antibody, human IgG4, V domains shown)
VH: B1 VH with H31N, A99G
VL: B1 VL
B5: X14 (antibody, human IgG4, V domains shown)
VH: B1 VH with P107T
VL: B1 VL with E33P, Y98F
B6: X17 (antibody, human IgG4, V domains shown)
VH: B1 VH with P107T
VL: B1 VL with Y30F, S32D, Y98F
B7: X18 (antibody, human IgG4, V domains shown)
VH: B1 VH with P107T
VL: B1 VL with Y30W, S32D, E33P, Y98F

Key:
[1] = target: recombinant cynomolgus PILRB (cynomolgus monkey); assay: SPR, Carterra LSA, antibody amine-coupled, kinetic fit
[2] = target: recombinant cynomolgus PILRB (cynomolgus monkey); assay: SPR, Biacore T200, antibody captured by anti-Fab

Binder	Kd [1] [nM]	Kd [2] [nM]
B1	0.1	
B2	0.3	
B3	0.5	
B4	0.5	0.4
B5	0.2	
B6	0.3	
B7	0.3	
